Data set [1] concerns the target HA-tagged human RTEL1 HHD1+2 deletion construct (human) (UniProt Q9NZ71). Put plainly: co-IP; whole-cell extracts of HEK293T cells overexpressing HA-tagged RTEL1 constructs; IP overnight at 4°C (anti-HA), protein G agarose, immunoblot for RPA; with or without 100 units Benzonase. In general terms: A western blot detects proteins with antibodies after separation by electrophoresis.

Data set [2] concerns the target T1, RPA 32C winged-helix domain (residues 172-270 of RPA32) (human, UniProt P15927 172-270).
T1 construct: RPA32 (RPA2), human, residues 172-270 (winged-helix 32C domain); pET-15b; uniformly 15N-labelled where it was the observed partner; source: E. coli BL21(DE3) pLysS, purified (Ni-NTA, Q column, SEC); not shown: His6, N-terminal, kept
Put plainly: NMR titration; 15N-labelled partner titrated with unlabelled partner; 1H-15N HSQC, 25°C, 20 mM Tris-HCl pH 7.4, 50 mM NaCl, 2 mM DTT, 0.02% NaN3; Kd and Koff from TITAN 2D lineshape analysis, two-state model. Conditions: both partners purified.

The target of data set [3] is T2, RTEL1 HHD2 (Homo sapiens, UniProt Q9NZ71-6 1056-1140).
T2 sequence: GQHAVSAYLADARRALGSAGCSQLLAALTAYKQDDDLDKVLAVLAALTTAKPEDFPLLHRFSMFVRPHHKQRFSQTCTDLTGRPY
The experiment in a line: ITC; pH 6.5; NMR: 20 mM Tris-HCl pH 7.4, 50 mM NaCl, 2 mM DTT, 0.02% NaN3, 10% D2O, 25 C (one ssDNA-22 titration at pH 6.5); ITC: 10 mM potassium phosphate pH 6.5, 50 mM KCl, 0.02% NaN3, 25 C. Conditions: protein: recombinant, tags: N-terminal 6xHis.

The target of a further data set is T3, RTEL1 HHD1 (Homo sapiens, UniProt Q9NZ71-6 886-978).
T3 sequence: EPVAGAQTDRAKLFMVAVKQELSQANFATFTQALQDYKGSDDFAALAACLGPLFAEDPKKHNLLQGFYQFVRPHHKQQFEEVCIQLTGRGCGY
Put plainly: NMR titration; NMR: 20 mM Tris-HCl pH 7.4, 50 mM NaCl, 2 mM DTT, 0.02% NaN3, 10% D2O, 25 C (one ssDNA-22 titration at pH 6.5); ITC: 10 mM potassium phosphate pH 6.5, 50 mM KCl, 0.02% NaN3, 25 C. Conditions: protein: recombinant; tags: N-terminal 6xHis; single strand.

In data set [4] the target is T2, RTEL1 HHD2. Put plainly: NMR titration (TITAN); pH 6.5; NMR: 20 mM Tris-HCl pH 7.4, 50 mM NaCl, 2 mM DTT, 0.02% NaN3, 10% D2O, 25 C (one ssDNA-22 titration at pH 6.5); ITC: 10 mM potassium phosphate pH 6.5, 50 mM KCl, 0.02% NaN3, 25 C. Conditions: protein: recombinant; tags: N-terminal 6xHis; single strand.
Data set [5] deals with T2, RTEL1 HHD2. Put plainly: NMR titration (TITAN); pH 7.4; NMR: 20 mM Tris-HCl pH 7.4, 50 mM NaCl, 2 mM DTT, 0.02% NaN3, 10% D2O, 25 C (one ssDNA-22 titration at pH 6.5); ITC: 10 mM potassium phosphate pH 6.5, 50 mM KCl, 0.02% NaN3, 25 C. Conditions: protein: recombinant, tags: N-terminal 6xHis.
The target in data set [6] is T2, RTEL1 HHD2. The experiment in a line: NMR titration; pH 7.4; NMR: 20 mM Tris-HCl pH 7.4, 50 mM NaCl, 2 mM DTT, 0.02% NaN3, 10% D2O, 25 C (one ssDNA-22 titration at pH 6.5); ITC: 10 mM potassium phosphate pH 6.5, 50 mM KCl, 0.02% NaN3, 25 C. Conditions: protein: recombinant; tags: N-terminal 6xHis; single strand.

What is called Kd is a measure of binding affinity in units of concentration. What is called koff is the first-order rate constant of dissociation.

T1 sequence (P15927 172-270): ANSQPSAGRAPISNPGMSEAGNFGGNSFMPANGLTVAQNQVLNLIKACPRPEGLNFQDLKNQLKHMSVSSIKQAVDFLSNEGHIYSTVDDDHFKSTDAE

Regarding “endogenous replication protein A (RPA) of HEK293T cells (from UniProt P27694 1-616; P15927 1-270; P35244 1-121) (complex)”, the reduction of co-immunoprecipitated RPA against full-length HA-RTEL1 in data set [1] amounted to 80%.

B1: RTEL1 harmonin homology domain 2 (residues 1056-1140) (domain or fragment, human, UniProt Q9NZ71-6 1056-1140, looked up)
chain: GQHAVSAYLADARRALGSAGCSQLLAALTAYKQDDDLDKVLAVLAALTTAKPEDFPLLHRFSMFVRPHHKQRFSQTCTDLTGRPY
notes: RTEL1, human, residues 1056-1140 (HHD2) of Uniprot Q9NZ71-6; uniformly 15N-labelled where it was the observed partner; also called HHD2; RTEL1 HHD2; source: E. coli Rosetta (DE3), purified (Ni-NTA, heparin, SEC); not shown: His6, N-terminal, kept
In data set [2], B1 yielded a Kd of 360000 nM and a koff of 8460 s⁻¹.

On to TTAGGCAGAGAGAGAGAGTTAGGC (ssDNA) [ssDNA-24], for which, in the data set with RTEL1 HHD2 [3] (single strand), the Kd is 1320 ± 150 nM.

B2: 5'ss_dsDNA-24 (mixed)
DNA 1: TTAGGCAGAGAGAGAGAGTTAGGC
DNA 2: GCCTAACTCTCTCTCTCT
Turning to B2, the Kd with RTEL1 HHD2 [3] (5' overhang 6 nt (strand 1)) was found to be 2580 ± 270 nM.

B3: 3'ss_dsDNA-24 (mixed)
DNA 1: TTAGGCAGAGAGAGAGAGTTAGGC
DNA 2: CTCTCTCTCTCTGCCTAA
B3: the Kd with RTEL1 HHD2 [3] (3' overhang 6 nt (strand 1)) was determined as 1220 ± 90 nM.

Turning to AGGATTAGGATTAGGATTAGGA (ssDNA) [ssDNA-22], the Kd in the data set with RTEL1 HHD2 [3] (single strand) is 940 ± 130 nM; with RTEL1 HHD2 [4], 3030 ± 640 nM; with RTEL1 HHD2 [5] (single strand) it was 14600 ± 1210 nM. Also, in the data set with RTEL1 HHD1, the binding result is reported as “no binding”.

Take TTAGGA (ssDNA) [ssDNA-6]: in the data set with RTEL1 HHD2 [6], the binding result is reported as “no binding”.

B4: dsDNA-24 (dsDNA)
DNA 1: TTAGGCAGAGAGAGAGAGTTAGGC
DNA 2: GCCTAACTCTCTCTCTCTGCCTAA
With B4, the Kd in the data set with RTEL1 HHD2 [3] (blunt) was determined as 1950 ± 310 nM.

TTAGGATTAGGA (ssDNA) [ssDNA-12]: the Kd with RTEL1 HHD2 [3] (single strand) came to 1510 ± 140 nM.

B5: dsDNA-22 (dsDNA)
DNA 1: AGGATTAGGATTAGGATTAGGA
DNA 2: TCCTAATCCTAATCCTAATCCT
On to B5, for which the Kd with RTEL1 HHD2 [5] (blunt) amounted to 19700 ± 4670 nM.

The values are drawn from publication PMC10853778 (Nucleic Acids Research, 2022).
